Experimental data reported in patent US20080166375A1.

Target: urokinase-type plasminogen activator receptor (human) (UniProt Q03405)
Assay: cell-based or functional assay

urokinase-type plasminogen activator receptor (human), sequence (Q03405 23-305): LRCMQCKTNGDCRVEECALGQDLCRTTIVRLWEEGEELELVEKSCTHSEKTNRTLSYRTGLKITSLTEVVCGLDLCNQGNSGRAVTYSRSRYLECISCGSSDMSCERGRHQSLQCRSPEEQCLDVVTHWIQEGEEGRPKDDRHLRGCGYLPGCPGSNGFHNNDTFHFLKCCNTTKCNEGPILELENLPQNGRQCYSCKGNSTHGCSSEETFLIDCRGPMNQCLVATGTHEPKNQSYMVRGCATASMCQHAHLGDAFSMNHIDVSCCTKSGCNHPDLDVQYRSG

For “DTAT (from UniProt P00588 33-422; P00749 21-155)”, the IC50, 3H-thymidine incorporation inhibition, HUV-EC, DTAT was 26.8 pM.
